The supplement of paper PMC10065799, “High-throughput profiling of sequence recognition by tyrosine kinases and SH2 domains using bacterial peptide display” (eLife, 2023)

What follows are sequences tested against EPHB1 (UniProt P54762) (assay: phosphorylation enrichment, bacterial display (enrichment ratio); higher = better substrate or ligand; peptides without Tyr show the background).
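Note: 11-residue human phosphosite peptides and single-mutation variants displayed on the E. coli surface, counted by deep sequencing, each peptide's frequency after selection divided by its frequency in the unselected input library; frequency after pTyr selection over input frequency; kinase dosed for 20-30% of maximal phosphorylation in three min.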

Sequence of EPHB1 (P54762 whole entry, looked up): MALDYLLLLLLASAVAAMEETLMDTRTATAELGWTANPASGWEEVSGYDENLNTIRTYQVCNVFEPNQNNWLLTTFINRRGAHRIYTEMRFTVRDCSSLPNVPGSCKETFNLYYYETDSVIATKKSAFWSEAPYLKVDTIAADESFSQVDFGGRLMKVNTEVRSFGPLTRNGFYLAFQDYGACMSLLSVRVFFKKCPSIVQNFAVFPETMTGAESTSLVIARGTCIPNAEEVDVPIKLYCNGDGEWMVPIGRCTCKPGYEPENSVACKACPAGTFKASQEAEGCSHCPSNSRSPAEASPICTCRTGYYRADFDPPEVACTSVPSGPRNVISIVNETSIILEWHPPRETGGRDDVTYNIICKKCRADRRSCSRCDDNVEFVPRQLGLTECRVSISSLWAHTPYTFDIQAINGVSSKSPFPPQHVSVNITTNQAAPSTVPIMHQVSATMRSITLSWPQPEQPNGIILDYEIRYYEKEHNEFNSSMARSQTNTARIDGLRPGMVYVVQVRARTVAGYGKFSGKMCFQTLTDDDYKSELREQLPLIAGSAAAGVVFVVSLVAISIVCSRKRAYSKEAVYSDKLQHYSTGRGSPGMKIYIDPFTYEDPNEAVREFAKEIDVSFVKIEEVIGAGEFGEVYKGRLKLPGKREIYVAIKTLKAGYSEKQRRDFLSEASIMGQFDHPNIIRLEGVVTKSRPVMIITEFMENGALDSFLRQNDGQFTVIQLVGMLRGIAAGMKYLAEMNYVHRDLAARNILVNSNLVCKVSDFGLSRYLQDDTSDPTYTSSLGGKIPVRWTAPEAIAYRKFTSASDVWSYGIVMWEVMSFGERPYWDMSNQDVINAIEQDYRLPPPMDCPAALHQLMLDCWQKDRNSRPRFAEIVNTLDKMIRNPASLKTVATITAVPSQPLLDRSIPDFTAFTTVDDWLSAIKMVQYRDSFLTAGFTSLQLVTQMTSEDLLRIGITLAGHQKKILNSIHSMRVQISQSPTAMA

Compared with ILLAGYLVMVI [SLC28A3_Y113], KLNNEYLELNY [MME_Y497] is higher in phosphorylation enrichment: 0.681 for the first, 0.925 for the second.

First: FGSGNYNVFGN [HNRNPA2B1_Y300_D302V_YF]
Second: ADLLDYIKALN [HPRT1_Y81]
The phosphorylation enrichment of the first is lower: 0.481 for the first, 0.625 for the second.

Compared with EPSVPYRGMVF [GLI3_Y104_T107M], FALAEYTEVKT [ALDH1A3_Y497_YF] is higher in phosphorylation enrichment: 0.43 for the first, 0.59 for the second.

First: ERIEFYELNKK [PMM2_Y145_D148N]
Second: VNLVLHLSIAK [FBXO15_Y496_Y496H]
The phosphorylation enrichment of the first is lower: 0.542 for the first, 0.583 for the second.

Compared with SGDVQYRSSVR [FREM2_Y2158_T2153S], LDFNEYVRDLN [HPRT1_Y198_F199V_YF] is higher in phosphorylation enrichment: 0.472 for the first, 0.804 for the second.

Going from DNLSNYVFQGQ [GRIN2A_Y978_N976S] to AEFGLYRAMVR [VSX2_Y222_G223R_YF], the phosphorylation enrichment falls from 2.09 to 0.731.

First: HGVSSYDTIIS [LDLR_Y465_V468I]
Second: RNGNRYFKGIV [DCX_Y64_D62N]
The phosphorylation enrichment of the first is higher: 0.827 for the first, 0.516 for the second.

First: LPPREYVVVPS [CAPN1_Y494_G492R]
Second: RLLCEYQELMN [KRT75_Y434_R432C]
The phosphorylation enrichment of the first is higher: 3.78 for the first, 1.34 for the second.

Going from SDVNKYSTAFG [GJB3_Y16_G12D] to LEISPYMLSGR [LRRK2_Y1718], the phosphorylation enrichment rises from 0.467 to 1.02.

Going from SSYDIYHLSRE [KIR3DL2_Y253] to CTTIHYMYMCN [TP53_Y234_N235M], the phosphorylation enrichment falls from 2.42 to 0.62.

First: LTYHMYADPNI [SOS1_Y618_F623I]
Second: RLGNQYVNVMN [SLC3A1_Y461]
The phosphorylation enrichment of the first is higher: 5.79 for the first, 2.21 for the second.

Compared with PFRKLYESVKK [MKI67_Y241_W238R], ISSLCYELLEE [TRPC6_Y896_R895C] is higher in phosphorylation enrichment: 0.516 for the first, 0.986 for the second.

Compared with ALERPYTSKHS [NANS_Y71], SNPAYYVLEGV [INPPL1_Y987_N982S] is higher in phosphorylation enrichment: 0.372 for the first, 0.769 for the second.

Compared with RILDVYIFLGP [GAA_Y340_G335R], WHHIFYNELRV [ACTG1_Y91_T89I] is lower in phosphorylation enrichment: 0.842 for the first, 0.663 for the second.

First: DNKALYDICFR [TUBB3_Y208_E205K]
Second: DPADRYLTEQY [CDKL5_Y286_C291Y]
The phosphorylation enrichment of the first is higher: 2.95 for the first, 0.398 for the second.

Compared with GCKNHYDKDKP [THAP1_Y14_R13H], EKDSNYCLCRT [ASIC2_Y357] is higher in phosphorylation enrichment: 0.396 for the first, 0.551 for the second.

With PATYTYDEYKK [COL8A2_Y648] the phosphorylation enrichment was 0.745.

What follows are sequences tested on Fer (mouse) in the same assay as above.

Compared with ILLAGYLVMVI [SLC28A3_Y113], KLNNEYLELNY [MME_Y497] is lower in phosphorylation enrichment: 0.613 for the first, 0.417 for the second.

Compared with FGSGNYNVFGN [HNRNPA2B1_Y300_D302V_YF], ADLLDYIKALN [HPRT1_Y81] is higher in phosphorylation enrichment: 0.338 for the first, 0.531 for the second.

Compared with EPSVPYRGMVF [GLI3_Y104_T107M], FALAEYTEVKT [ALDH1A3_Y497_YF] is higher in phosphorylation enrichment: 0.38 for the first, 0.567 for the second.

First: ERIEFYELNKK [PMM2_Y145_D148N]
Second: VNLVLHLSIAK [FBXO15_Y496_Y496H]
The phosphorylation enrichment of the first is lower: 0.619 for the first, 0.799 for the second.

Compared with SGDVQYRSSVR [FREM2_Y2158_T2153S], LDFNEYVRDLN [HPRT1_Y198_F199V_YF] is higher in phosphorylation enrichment: 0.377 for the first, 0.634 for the second.

Going from DNLSNYVFQGQ [GRIN2A_Y978_N976S] to AEFGLYRAMVR [VSX2_Y222_G223R_YF], the phosphorylation enrichment rises from 0.416 to 0.431.

Going from HGVSSYDTIIS [LDLR_Y465_V468I] to RNGNRYFKGIV [DCX_Y64_D62N], the phosphorylation enrichment falls from 0.712 to 0.6.

Going from LPPREYVVVPS [CAPN1_Y494_G492R] to RLLCEYQELMN [KRT75_Y434_R432C], the phosphorylation enrichment falls from 1.73 to 0.839.

Going from SDVNKYSTAFG [GJB3_Y16_G12D] to LEISPYMLSGR [LRRK2_Y1718], the phosphorylation enrichment rises from 0.462 to 0.806.

First: SSYDIYHLSRE [KIR3DL2_Y253]
Second: CTTIHYMYMCN [TP53_Y234_N235M]
The phosphorylation enrichment of the first is higher: 1.74 for the first, 0.556 for the second.

Compared with LTYHMYADPNI [SOS1_Y618_F623I], RLGNQYVNVMN [SLC3A1_Y461] is lower in phosphorylation enrichment: 1.23 for the first, 0.513 for the second.

First: PFRKLYESVKK [MKI67_Y241_W238R]
Second: ISSLCYELLEE [TRPC6_Y896_R895C]
The phosphorylation enrichment of the first is lower: 0.458 for the first, 0.924 for the second.

Going from ALERPYTSKHS [NANS_Y71] to SNPAYYVLEGV [INPPL1_Y987_N982S], the phosphorylation enrichment rises from 0.353 to 0.515.

First: RILDVYIFLGP [GAA_Y340_G335R]
Second: WHHIFYNELRV [ACTG1_Y91_T89I]
The phosphorylation enrichment of the first is higher: 0.584 for the first, 0.536 for the second.

First: DNKALYDICFR [TUBB3_Y208_E205K]
Second: DPADRYLTEQY [CDKL5_Y286_C291Y]
The phosphorylation enrichment of the first is higher: 4.5 for the first, 0.39 for the second.

Compared with GCKNHYDKDKP [THAP1_Y14_R13H], EKDSNYCLCRT [ASIC2_Y357] is lower in phosphorylation enrichment: 0.521 for the first, 0.442 for the second.

With PATYTYDEYKK [COL8A2_Y648] the phosphorylation enrichment was 0.558.

The sequences below were run against EPHB2 (UniProt P29323) in the same assay as above.
Sequence of EPHB2 (P29323 whole entry, looked up): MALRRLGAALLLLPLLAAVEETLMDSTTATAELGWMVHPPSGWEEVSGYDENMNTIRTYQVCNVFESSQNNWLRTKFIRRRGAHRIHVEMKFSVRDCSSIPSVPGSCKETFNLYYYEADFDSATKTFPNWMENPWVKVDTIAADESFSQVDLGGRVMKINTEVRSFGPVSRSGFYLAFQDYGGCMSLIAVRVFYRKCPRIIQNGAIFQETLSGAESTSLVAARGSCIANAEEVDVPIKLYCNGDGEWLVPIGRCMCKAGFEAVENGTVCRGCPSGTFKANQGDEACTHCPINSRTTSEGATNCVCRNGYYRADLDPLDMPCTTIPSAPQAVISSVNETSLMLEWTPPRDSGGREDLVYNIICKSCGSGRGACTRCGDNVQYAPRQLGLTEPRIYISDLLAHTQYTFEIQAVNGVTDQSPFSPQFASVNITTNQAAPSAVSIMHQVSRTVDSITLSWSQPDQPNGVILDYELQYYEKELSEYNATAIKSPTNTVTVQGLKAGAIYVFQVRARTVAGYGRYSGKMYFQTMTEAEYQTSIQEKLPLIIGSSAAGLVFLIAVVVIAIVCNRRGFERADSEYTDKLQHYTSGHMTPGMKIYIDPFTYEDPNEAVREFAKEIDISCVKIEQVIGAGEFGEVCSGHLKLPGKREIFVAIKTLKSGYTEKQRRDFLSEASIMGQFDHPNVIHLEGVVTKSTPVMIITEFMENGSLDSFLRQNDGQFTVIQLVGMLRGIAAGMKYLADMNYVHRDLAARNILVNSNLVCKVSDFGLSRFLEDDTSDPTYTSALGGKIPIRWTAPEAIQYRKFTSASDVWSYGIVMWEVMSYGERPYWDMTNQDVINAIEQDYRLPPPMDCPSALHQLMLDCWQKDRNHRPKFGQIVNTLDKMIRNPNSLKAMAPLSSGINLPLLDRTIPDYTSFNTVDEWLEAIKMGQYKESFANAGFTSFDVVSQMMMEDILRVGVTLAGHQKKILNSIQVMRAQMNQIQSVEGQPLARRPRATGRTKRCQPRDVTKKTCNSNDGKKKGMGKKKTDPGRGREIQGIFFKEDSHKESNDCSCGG

Going from ILLAGYLVMVI [SLC28A3_Y113] to KLNNEYLELNY [MME_Y497], the phosphorylation enrichment rises from 0.652 to 1.01.

Going from FGSGNYNVFGN [HNRNPA2B1_Y300_D302V_YF] to ADLLDYIKALN [HPRT1_Y81], the phosphorylation enrichment rises from 0.476 to 0.558.

Going from EPSVPYRGMVF [GLI3_Y104_T107M] to FALAEYTEVKT [ALDH1A3_Y497_YF], the phosphorylation enrichment falls from 0.56 to 0.475.

First: ERIEFYELNKK [PMM2_Y145_D148N]
Second: VNLVLHLSIAK [FBXO15_Y496_Y496H]
The phosphorylation enrichment of the first is higher: 0.71 for the first, 0.609 for the second.

Compared with SGDVQYRSSVR [FREM2_Y2158_T2153S], LDFNEYVRDLN [HPRT1_Y198_F199V_YF] is higher in phosphorylation enrichment: 0.332 for the first, 0.665 for the second.

Going from DNLSNYVFQGQ [GRIN2A_Y978_N976S] to AEFGLYRAMVR [VSX2_Y222_G223R_YF], the phosphorylation enrichment falls from 1.22 to 0.595.

First: HGVSSYDTIIS [LDLR_Y465_V468I]
Second: RNGNRYFKGIV [DCX_Y64_D62N]
The phosphorylation enrichment of the first is higher: 0.819 for the first, 0.51 for the second.

First: LPPREYVVVPS [CAPN1_Y494_G492R]
Second: RLLCEYQELMN [KRT75_Y434_R432C]
The phosphorylation enrichment of the first is higher: 4.02 for the first, 1.09 for the second.

Going from SDVNKYSTAFG [GJB3_Y16_G12D] to LEISPYMLSGR [LRRK2_Y1718], the phosphorylation enrichment rises from 0.387 to 1.1.

Compared with SSYDIYHLSRE [KIR3DL2_Y253], CTTIHYMYMCN [TP53_Y234_N235M] is lower in phosphorylation enrichment: 3.54 for the first, 0.517 for the second.

First: LTYHMYADPNI [SOS1_Y618_F623I]
Second: RLGNQYVNVMN [SLC3A1_Y461]
The phosphorylation enrichment of the first is higher: 6.28 for the first, 0.59 for the second.

Going from PFRKLYESVKK [MKI67_Y241_W238R] to ISSLCYELLEE [TRPC6_Y896_R895C], the phosphorylation enrichment rises from 0.368 to 0.654.

First: ALERPYTSKHS [NANS_Y71]
Second: SNPAYYVLEGV [INPPL1_Y987_N982S]
The phosphorylation enrichment of the first is lower: 0.459 for the first, 0.609 for the second.

Compared with RILDVYIFLGP [GAA_Y340_G335R], WHHIFYNELRV [ACTG1_Y91_T89I] is higher in phosphorylation enrichment: 0.676 for the first, 0.725 for the second.

Going from DNKALYDICFR [TUBB3_Y208_E205K] to DPADRYLTEQY [CDKL5_Y286_C291Y], the phosphorylation enrichment falls from 2.23 to 0.487.

Going from GCKNHYDKDKP [THAP1_Y14_R13H] to EKDSNYCLCRT [ASIC2_Y357], the phosphorylation enrichment rises from 0.521 to 0.634.

Work on PATYTYDEYKK [COL8A2_Y648] yielded a phosphorylation enrichment of 0.883.

The sequences below were run against Fyn (UniProt P06241) in the same assay as above.
Sequence of Fyn (P06241 whole entry, looked up): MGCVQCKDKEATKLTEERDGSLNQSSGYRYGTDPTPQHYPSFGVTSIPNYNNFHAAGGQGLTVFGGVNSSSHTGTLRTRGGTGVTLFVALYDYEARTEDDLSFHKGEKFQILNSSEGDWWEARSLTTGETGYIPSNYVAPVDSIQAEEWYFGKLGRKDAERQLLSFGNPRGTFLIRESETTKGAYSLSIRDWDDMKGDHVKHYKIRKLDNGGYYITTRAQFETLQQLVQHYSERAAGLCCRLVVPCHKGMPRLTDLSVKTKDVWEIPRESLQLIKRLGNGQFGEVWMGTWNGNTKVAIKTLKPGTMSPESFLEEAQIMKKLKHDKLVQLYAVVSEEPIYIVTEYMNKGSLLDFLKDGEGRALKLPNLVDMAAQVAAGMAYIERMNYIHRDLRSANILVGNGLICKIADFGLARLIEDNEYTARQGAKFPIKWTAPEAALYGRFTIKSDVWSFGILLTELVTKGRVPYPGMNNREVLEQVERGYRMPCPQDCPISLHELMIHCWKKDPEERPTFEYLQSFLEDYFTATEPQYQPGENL

First: ILLAGYLVMVI [SLC28A3_Y113]
Second: KLNNEYLELNY [MME_Y497]
The phosphorylation enrichment of the first is lower: 0.572 for the first, 0.633 for the second.

First: FGSGNYNVFGN [HNRNPA2B1_Y300_D302V_YF]
Second: ADLLDYIKALN [HPRT1_Y81]
The phosphorylation enrichment of the first is lower: 0.396 for the first, 0.445 for the second.

Compared with EPSVPYRGMVF [GLI3_Y104_T107M], FALAEYTEVKT [ALDH1A3_Y497_YF] is higher in phosphorylation enrichment: 0.413 for the first, 0.719 for the second.

Going from ERIEFYELNKK [PMM2_Y145_D148N] to VNLVLHLSIAK [FBXO15_Y496_Y496H], the phosphorylation enrichment falls from 0.497 to 0.492.

Compared with SGDVQYRSSVR [FREM2_Y2158_T2153S], LDFNEYVRDLN [HPRT1_Y198_F199V_YF] is higher in phosphorylation enrichment: 0.375 for the first, 0.674 for the second.

First: DNLSNYVFQGQ [GRIN2A_Y978_N976S]
Second: AEFGLYRAMVR [VSX2_Y222_G223R_YF]
The phosphorylation enrichment of the first is lower: 0.475 for the first, 0.821 for the second.

Compared with HGVSSYDTIIS [LDLR_Y465_V468I], RNGNRYFKGIV [DCX_Y64_D62N] is lower in phosphorylation enrichment: 0.669 for the first, 0.42 for the second.

First: LPPREYVVVPS [CAPN1_Y494_G492R]
Second: RLLCEYQELMN [KRT75_Y434_R432C]
The phosphorylation enrichment of the first is higher: 1.41 for the first, 0.83 for the second.

First: SDVNKYSTAFG [GJB3_Y16_G12D]
Second: LEISPYMLSGR [LRRK2_Y1718]
The phosphorylation enrichment of the first is lower: 0.42 for the first, 1.44 for the second.

First: SSYDIYHLSRE [KIR3DL2_Y253]
Second: CTTIHYMYMCN [TP53_Y234_N235M]
The phosphorylation enrichment of the first is higher: 13 for the first, 0.362 for the second.

Compared with LTYHMYADPNI [SOS1_Y618_F623I], RLGNQYVNVMN [SLC3A1_Y461] is lower in phosphorylation enrichment: 6.07 for the first, 0.471 for the second.

Going from PFRKLYESVKK [MKI67_Y241_W238R] to ISSLCYELLEE [TRPC6_Y896_R895C], the phosphorylation enrichment rises from 0.454 to 0.597.

Going from ALERPYTSKHS [NANS_Y71] to SNPAYYVLEGV [INPPL1_Y987_N982S], the phosphorylation enrichment rises from 0.406 to 1.25.

First: RILDVYIFLGP [GAA_Y340_G335R]
Second: WHHIFYNELRV [ACTG1_Y91_T89I]
The phosphorylation enrichment of the first is higher: 0.46 for the first, 0.388 for the second.

Compared with DNKALYDICFR [TUBB3_Y208_E205K], DPADRYLTEQY [CDKL5_Y286_C291Y] is lower in phosphorylation enrichment: 2.6 for the first, 0.478 for the second.

Compared with GCKNHYDKDKP [THAP1_Y14_R13H], EKDSNYCLCRT [ASIC2_Y357] is higher in phosphorylation enrichment: 0.423 for the first, 0.569 for the second.

For PATYTYDEYKK [COL8A2_Y648], the phosphorylation enrichment was 1.67.
